Test results reported in the supplement of paper PMC10724198.
Several values for one entry are separate records, joined by “and”; a condition that tells them apart may be missing. Equal values may be shown once. ± gives the standard deviation of the averaged measurements.

Assays:
Saccharomyces cerevisiae [1] = experiment: protein stability index of tFT-peptide fusion in wild type (PSI (0-1 scale)); higher = more stable (slower turnover); details: genetic background: wild type
Saccharomyces cerevisiae [2] = experiment: protein stability index of tFT-peptide fusion in deletion strain of DOA10 (PSI (0-1 scale)); higher = more stable (slower turnover)
Experimental: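 MPS profiling in S. cerevisiae of two library types built from selected 12-aa C-degron peptides (IN1, IN2, LN1, LN3, VN2, R1-R5, W1-W3, Atg1 and Rpa12 C-termini): saturation mutagenesis libraries and C-terminal +1 capping libraries (13 aa). Each peptide is fused to the C-terminus of a sfGFP-mCherry timer, after a GGGS linker. Cells are FACS-sorted into 8 mCherry/sfGFP bins and sequenced. PSI runs from 0 (unstable) to 1 (stable), measured once in wild type and in the das1Δ or doa10Δ background.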

Saccharomyces cerevisiae [3] = experiment: protein stability index of tFT-peptide fusion in deletion strain of DAS1 (PSI (0-1 scale)); higher = more stable (slower turnover)
Saccharomyces cerevisiae [4] = experiment: protein stability index of tFT-peptide fusion (C-terminal peptide) (PSI (0-1 scale)); higher = more stable (slower turnover)
Experimental: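 MPS profiling in S. cerevisiae of the tFT-X12 degron library: putative degron peptides plus stable controls, 12 aa, fused to the C-terminus of a sfGFP-mCherry timer. Cells are FACS-sorted into 8 mCherry/sfGFP bins and deep-sequenced. PSI runs from 0 (unstable) to 1 (stable). Backgrounds are wild type, das1Δ and doa10Δ at 30 °C, and wild type, das1Δ, cdc34-1 and cdc53-1 at 37 °C; 2-3 technical replicates each.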

Saccharomyces cerevisiae [5] = experiment: as above; details: genetic background: wild type; temperature: 30 C
[6] = genetic background: cdc34-1, temperature: 37 C
[7] = genetic background: cdc53-1, temperature: 37 C
[8] = genetic background: das1 deletion, temperature: 30 C
[9] = genetic background: das1 deletion, temperature: 37 C
[10] = genetic background: doa10 deletion, temperature: 30 C
[11] = genetic background: wild type, temperature: 30 C
[12] = genetic background: wild type, temperature: 37 C
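Wherever protein stability index of tFT-peptide fusion (C-terminal peptide) is given: PSI is a weighted mean of sequencing reads over stability bins, variants kept only with over 10 reads, mCherry proximal and sfGFP distal, peptide attached via GGGS linker.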
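Wherever protein stability index of tFT-peptide fusion in deletion strain of DAS1 is given: PSI is a weighted mean of each variant's read distribution over the sorted stability bins, computed only for variants having over 10 reads in total.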
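Wherever protein stability index of tFT-peptide fusion in deletion strain of DOA10 is given: PSI per variant is the weighted mean of its sequencing read distribution over the sorted stability bins, counting only variants with over 10 reads summed across bins.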
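Wherever protein stability index of tFT-peptide fusion in wild type is given: PSI derived as read-weighted mean over the 8 sorting bins, only variants exceeding 10 total reads kept, mCherry placed adjacent to the peptide and sfGFP distal.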

Row | Sequence | protein stability index (Saccharomyces cerevisiae [1]) | protein stability index (Saccharomyces cerevisiae [2]) | also measured
1 | RVTRLDMIYFRI | 0.236 | 0.658 | –
2 | AQTLPMCPLLLR | 0.394 | 0.686 | –
3 | RSLRVLEPLYFR | 0.412 | 0.69 | –
4 | RVTRLDAIYNRI | 0.697 | 0.738 | –
5 | AITLPMCPLLLL | 0.558 | 0.625 | –
6 | AITLPMYPLLLR | 0.161 | 0.651 | –
7 | CLVSLPILLLFR | 0.0579 | 0.579 | –
8 | RRTRLDAIYFRI | 0.422 | 0.599 | –
9 | CLVSLPILAFFR | 0.151 | 0.613 | –
10 | CLVSLPILQFFR | 0.623 | 0.66 | –
11 | AITLPMCPGLLR | 0.635 | 0.673 | –
12 | AIELPMCPLLLR | 0.221 | 0.677 | –
13 | AITLPMDPLLLR | 0.627 | 0.681 | –
14 | CLVSMPILLFFR | 0.0734 | 0.601 | –
15 | RSLRVLLPLYSR | 0.609 | 0.642 | –
16 | GLYMCSVGCWFRK | 0.435 | 0.648 | –
17 | GLYMCSRGCWFR | 0.436 | 0.677 | –
18 | RVTRLDAIFFRI | 0.364 | 0.712 | –
19 | CLVSLFILLFFR | 0.228 | 0.433 | –
20 | RVTRLDAIYFLI | 0.0749 | 0.119 | –
21 | CLVSLQILLFFR | 0.164 | 0.264 | –
22 | GLYMCSVRCWFR | 0.382 | 0.442 | –

Row | Sequence | protein stability index (Saccharomyces cerevisiae [1]) | protein stability index (Saccharomyces cerevisiae [2]) | also measured
23 | GLYMCSVGCMFR | 0.524 | 0.636 | –
24 | QITLPMCPLLLR | 0.288 | 0.645 | –
25 | GLYMCSEGCWFR | 0.619 | 0.706 | –
26 | GLYMCSVGCHFR | 0.621 | 0.663 | –
27 | CLVSLPILLFFP | 0.495 | 0.588 | –
28 | GLYMWSVGCWFR | 0.278 | 0.601 | –
29 | RVSRLDAIYFRI | 0.445 | 0.671 | –
30 | RVTRLDAIPFRI | 0.69 | 0.724 | –
31 | AITLPMCPLLLRV | 0.11 | 0.334 | –
32 | RSLRVLLPLYFRP | 0.291 | 0.638 | –
33 | CLVSLPILLYFR | 0.0564 | 0.597 | –
34 | RVTFLDAIYFRI | 0.438 | 0.621 | –
35 | RVTRLDAIYFRIT | 0.16 | 0.243 | –
36 | GLYMCSVGCWWR | 0.355 | 0.634 | –
37 | FSMRWTFRYWVN | 0.0664 and 0.0463 | – | protein stability index (Saccharomyces cerevisiae [3]): 0.528 and 0.476; protein stability index (Saccharomyces cerevisiae [4]; [6]): 0.301 ± 0.016; protein stability index (Saccharomyces cerevisiae [4]; [7]): 0.545 ± 0.03; protein stability index (Saccharomyces cerevisiae [4]; [8]): 0.531 ± 0.025; protein stability index (Saccharomyces cerevisiae [4]; [9]): 0.573 ± 0.011; protein stability index (Saccharomyces cerevisiae [4]; [10]): 0.0438 ± 0.012; protein stability index (Saccharomyces cerevisiae [4]; [11]): 0.0542 ± 0.0043; protein stability index (Saccharomyces cerevisiae [4]; [12]): 0.0931 ± 0.022; protein stability index (Saccharomyces cerevisiae [5]): 0.112 ± 0.021
38 | RVTRLDAIYARI | 0.684 | 0.724 | –
39 | AITLPMCHLLLR | 0.158 | 0.663 | –
40 | RVLRLDAIYFRI | 0.376 | 0.666 | –
41 | AITYPMCPLLLR | 0.287 | 0.655 | –
42 | ISLRVLLPLYFR | 0.286 | 0.588 | –
43 | ARWRVGLWRGAS | 0.37 | – | protein stability index (Saccharomyces cerevisiae [3]): 0.679; protein stability index (Saccharomyces cerevisiae [4]; [6]): 0.66 ± 0.033; protein stability index (Saccharomyces cerevisiae [4]; [7]): 0.7486 ± 0.0018; protein stability index (Saccharomyces cerevisiae [4]; [8]): 0.648 ± 0.021; protein stability index (Saccharomyces cerevisiae [4]; [9]): 0.764 ± 0.011; protein stability index (Saccharomyces cerevisiae [4]; [10]): 0.259 ± 0.0043; protein stability index (Saccharomyces cerevisiae [4]; [11]): 0.3 ± 0.035; protein stability index (Saccharomyces cerevisiae [4]; [12]): 0.612 ± 0.012; protein stability index (Saccharomyces cerevisiae [5]): 0.448 ± 0.028
44 | GLYMCSVGCWFRT | 0.227 | 0.554 | –

Row | Sequence | protein stability index (Saccharomyces cerevisiae [1]) | protein stability index (Saccharomyces cerevisiae [2]) | also measured
45 | RSLVVLLPLYFR | 0.257 | 0.634 | –
46 | AITLPMCPCLLR | 0.367 | 0.651 | –
47 | ADTLPMCPLLLR | 0.56 | 0.679 | –
48 | AITLPMCPLLLRI | 0.0995 | 0.485 | –
49 | GLYMCSVGKWFR | 0.637 | 0.674 | –
50 | AITLPPCPLLLR | 0.232 | 0.673 | –
51 | RVTRLDAIYFSI | 0.629 | 0.713 | –
52 | LVVYLSCVACIN | 0.0193 and 0.0155 | – | protein stability index (Saccharomyces cerevisiae [3]): 0.032 and 0.0307; protein stability index (Saccharomyces cerevisiae [4]; [6]): 0.0319 ± 0.015; protein stability index (Saccharomyces cerevisiae [4]; [7]): 0.028 ± 0.0046; protein stability index (Saccharomyces cerevisiae [4]; [8]): 0.0277 ± 0.0056; protein stability index (Saccharomyces cerevisiae [4]; [9]): 0.0456 ± 0.0096; protein stability index (Saccharomyces cerevisiae [4]; [10]): 0.0223 ± 0.0051; protein stability index (Saccharomyces cerevisiae [4]; [11]): 0.0185 ± 0.0067; protein stability index (Saccharomyces cerevisiae [4]; [12]): 0.0515 ± 0.034; protein stability index (Saccharomyces cerevisiae [5]): 0.0328 ± 0.013
53 | AITLPMCPRLLR | 0.648 | 0.675 | –
54 | AITLPECPLLLR | 0.467 | 0.677 | –
55 | CLVHLPILLFFR | 0.0596 | 0.56 | –
56 | GLCMCSVGCWFR | 0.256 | 0.608 | –
57 | RVTRLDAIYFRIS | 0.206 | 0.271 | –
58 | RSLRVLLPTYFR | 0.569 | 0.664 | –
59 | CLVSLPILLFFY | 0.232 | 0.435 | –
60 | CLVSLVILLFFR | 0.258 | 0.34 | –
61 | RVTRMDAIYFRI | 0.365 | 0.683 | –
62 | GRYMCSVGCWFR | 0.385 | 0.669 | –
63 | RVTRLDAIQFRI | 0.658 | 0.698 | –
64 | CVTRLDAIYFRI | 0.194 | 0.71 | –
65 | RLVSLPILLFFR | 0.0755 | 0.614 | –
66 | KSLRVLLPLYFR | 0.288 | 0.654 | –

Row | Sequence | protein stability index (Saccharomyces cerevisiae [1]) | protein stability index (Saccharomyces cerevisiae [2]) | also measured
67 | RVTRLDAIYFRF | 0.415 | 0.718 | –
68 | AITLPACPLLLR | 0.291 | 0.657 | –
69 | AITLPMCPLLLF | 0.462 | 0.512 | –
70 | AITLPMRPLLLR | 0.176 | 0.637 | –
71 | GLYMCSVGCWIR | 0.179 | 0.402 | –
72 | GLYMCSVGCWLR | 0.212 | 0.537 | –
73 | GLYMCFVGCWFR | 0.233 | 0.402 | –
74 | TLVSLPILLFFR | 0.0732 | 0.613 | –
75 | DITLPMCPLLLR | 0.39 | 0.655 | –
76 | RSLRVLLPLYHR | 0.626 | 0.682 | –
77 | RPLRVLLPLYFR | 0.355 | 0.666 | –
78 | GLYMCSVGCWFL | 0.506 | 0.598 | –
79 | AITLPMCPLLHR | 0.628 | 0.716 | –
80 | RSLRVLLPLYLR | 0.29 | 0.671 | –
81 | CLVLLPILLFFR | 0.0939 | 0.442 | –
82 | AITLPMCPLRLR | 0.453 | 0.666 | –
83 | RSLRVLLPLYFRE | 0.356 | 0.703 | –
84 | RSLRILLPLYFR | 0.253 | 0.655 | –
85 | GLYMMSVGCWFR | 0.26 | 0.604 | –
86 | AITLPMCPLLLRR | 0.34 | 0.673 | –
